Data reported in US20030157533A1, “Nucleic acid labeling by Thermoanaerobacter thermohydrosulfuricus DNA polymerase I variants” (priority 2001, published 2003).

Assays:
Format in all cases: biochemical
[1] = test system: Globin mRNA template annealed to P-33 labeled primer; experiment: Single nucleotide incorporation of Cy3.5-dCTP or dCTP on RNA template (reverse transcriptase reaction, FIG. 7); settings: lower concentrations (0.2 uM or lower) of dye-CTP
Experimental: The experiment shown in FIG. 7 investigates the relative efficiencies of incorporation of dye-CTP (Cy3.5-dCTP) and dCTP. Three enzyme preparations ΔTts, ΔTts F412Y, ΔTtsF412YD426R were analyzed in this experiment.
(§1) Optimized 1×buffer compositions for Reverse Transcriptase (RNA dependent DNA Polymerase) and DNA Polymerase (DNA dependent DNA polymerase) reactions for all variants of Tts Pol I are as follows. Tris, pH 8.0 (50 mM), KCl (40 mM), MgCl2 (3 mM), DTT (1 mM), DNA or RNA template (as needed), primer (5 to 50 femto mols), enzyme 0.5 to 1 units, dNTP or dNTP analog (varying concentrations as needed). In standard synthesis reactions, when full-length synthesis is monitored, 50 uM of all 4 dNTPs are included. Typical reaction volume is 10 ul. Reaction temperature was kept between 37-60 C. depending on the experimental needs. Reaction time was limited to 10 minutes for single nucleotide incorporation studies. Time was varied as needed for the purpose of the experiments, sometimes up to 1 hour if longer extensions are monitored.
The experiment shown in FIG. 7 investigates the relative efficiencies of incorporation of dye-CTP (Cy3.5-dCTP) and dCTP. Three enzyme preparations ΔTts, ΔTtsFY, ΔTtsF412YD426R were analyzed in this experiment.
In FIG. 7, Globin mRNA served as the template. A 5′ P-33 labeled primer (DNA 25-mer) was annealed to the template. Reactions were performed with varying concentrations of either Cy3.5-dCTP or dCTP alone. Inclusion of only one dNTP allowed incorporation of the next correct nucleotide alone. The sequence of the template-primer that allowed for the examination of single nucleotide “C” incorporation is shown below.
Lanes 1,2,3 and 4 contain 20, 2, 0.2, and 0.02 uM of dNTP or dye-dNTP. Lane with no label has no enzyme, to show the integrity of the starting P-33 labeled primer. Quantification of the single nucleotide extension product is one way to tell if DR change to in the enzyme led to any consequence. “P” indicates a radio labeled primer. “P+1” represents the elongated product by a single nucleotide or nucleotide analog. P+1 migrates slowly with the dye-dNTP conjugate. Note that the migration of Cy3.5 dCMP containing bands travel slowly on the gel compared to dCTP extended products. […] Essentially, incorporation is achieved at lower concentrations (less than 10 times) of dye-dNTP compared to that of the wild type polymerase. It is evident that the DR enzyme was able to incorporate Cy3.5 dCTP at concentrations as low as 0.2 uM (Cy3.5 dCTP) or even lower. […] In this experiment the template-primer is a mRNA annealed to radio labeled primer. Extension is monitored qualitatively as P+1 for the natural nucleotides and P+1* for dye labeled nucleotide. This is a promising first observation for potential use in microarray applications for cDNA probe labeling.

[2] = test system: defined DNA template-DNA primer; experiment: Single nucleotide incorporation of dye-dCTP during DNA dependent DNA synthesis (FIG. 13); settings: lower concentrations (0.2 uM or lower) of dye-dCTP
Experimental: as §1
Primer extension was monitored using a defined DNA template-DNA primer.
In this experiment the relative efficiencies of incorporation of dye-CTP (Cy3.5-dCTP) was investigated. Three enzyme preparations were tested ΔTts, ΔTtsF412Y, and ΔTtsF412YD426R
Defined DNA shown below served as the template. A P-33 labeled primer (DNA 25 mer) was annealed to the template. Reactions were performed with varying concentrations of either Cy3.5-dCTP or dCTP alone. Inclusion of only one dNTP allowed incorporation of the next correct nucleotide alone. The sequence of the template-primer that allowed for the examination of single nucleotide “C” incorporation is shown below.
Lanes 1, 2, 3, 4 and 5 contain 20, 2, 0.2, 0.02 and 0 uM dye-dCTP. Lane 5 has no enzyme, to show the integrity of the starting p-33 labeled primer. Quantification of the single nucleotide extension product is one way to tell if DR change in the enzyme led to any consequence. “P” indicates a radio labeled primer. “P+1” represents the elongated product by a single nucleotide or nucleotide analog. P+1 migrates slowly with the dye-dNTP conjugate. Note that the migration of Cy3.5-dCTP containing band travel slowly on the gel compared to dCMP extended products. […] P+1 product is achieved between 10-100 fold less concentration of dye-dCTP with the enzyme having the DR change. Essentially, incorporation is achieved at a much lower concentration of dye-dNMP compared to the wild type enzyme. It is evident that the DR enzyme was able to incorporate Cy3.5-dCTP at concentrations as low as 0.2 uM or even lower.

[3] = test system: Globin mRNA; experiment: Direct RNA sequencing (FIG. 8); settings: compared to retroviral reverse transcriptases
From the text: Globin mRNA served as a template. The 50-mer DNA was used a primer. Standard sequencing components in Amersham Pharmacia Thermo Sequenase kit were employed for sequencing. P-33 labeled terminators (ddNTP) were obtained from Amersham Pharmacia Biotech. Post-sequencing reaction products were separated on 6% urea-polyacrylamide gels. AMV, Avian Myeloblastosis virus RT.

incorporation of Cy3.5-dCTP (qualitative, P+1 band) [1] | Molecule | incorporation of Cy3.5-dCTP (qualitative, P+1 band) [2] | quality of sequence information from short stretches of RNA [3]
relatively poor incorporation | D enzyme: 5′-3′ exonuclease deficient amino-terminally truncated Tts DNA polymerase I with unaltered aspartate at 426 (SEQ ID No. 3) (protein, listed as Thermoanaerobacter thermohydrosulfuricus) MYKFLIIDGSSLMYRAYYALPMLTTSEGLPTNALYGFTMMLIKLIEEEKPDYIAIAFDKKAPTFRHKEYQDYKATRQAMPEELAEQVDYLKEIIDGFNIKTLELEGYEADDIIGTISKLAEEKGMEVLVVTGDRDALQLVSDKVKIKISKKGITQMEEFDEKAILERYGITPQQFIDLKGLMGDKSDNIPGVPNIGEKTAIKLLKDFGTIENLIQNLSQLKGKIKENIENNKELAIMSKRLATIKRDIPIEIDFEEYKVKKFNEEKLLELFNKLEFFSLIDNIKKESSIEIVDNHKVEKWSKVDIKELVTLLQDNRNIAFYPLIYEGEIKKIAFSFGKDTVYIDVFQTEDLKEIFEKEDFEFTTHEIKDFLVRLSYKGIECKSKYIDTAVMAYLLNPSESNYDLDRVLKKYLKVDVPSYEGIFGKGRDKKKIEEIDENILADYICSRCVYLFDLKEKLMNFIEEMDMKKLLLEIEMPLVEVLKSMEVSGFTLDKEVLKELSQKIDDRIGEILDKIYKEAGYQFNVNSPKQLSEFLFEKLNLPVIKKTKTGYSTDSEVLEQLVPYNDIVSDIIEYRQLTKLKSTYIDGFLPLMDENNRVHSNFKQMVTATGRISSTEPNLQNIPIREEFGRQIRRAFIPRSRDGYIVSADYSQIELRVLAHVSGDEKLIESFMNNEDIHLRTASEVFKVPMEKVTPEMRRAAKAVNFGIIYGISDYGLSRDLKISRKEAKEYINNYFERYKGVKDYIEKIVRFAKENGYVTTIMNRRRYIPEINSRNFTQRSQAERLAMNAPIQGSAADIIKMAMVKVYNDLKKLKLKSKLILQVHDELVVDTYKDEVDIIKKILKENMENVVQLKVPLVVEIGVGPNWFLAK | relatively poor incorporation | 
decreased incorporation | Tts F412Y: exonuclease deficient truncated Tts DNA polymerase I with F to Y change at position 412 (SEQ ID No. 5) (protein, listed as Thermoanaerobacter thermohydrosulfuricus) MYKFLIIDGSSLMYRAYYALPMLTTSEGLPTNALYGFTMMLIKLIEEEKPDYIAIAFDKKAPTFRHKEYQDYKATRQAMPEELAEQVDYLKEIIDGFNIKTLELEGYEADDIIGTISKLAEEKGMEVLVVTGDRDALQLVSDKVKIKISKKGITQMEEFDEKAILERYGITPQQFIDLKGLMGDKSDNIPGVPNIGEKTAIKLLKDFGTIENLIQNLSQLKGKIKENIENNKELAIMSKRLATIKRDIPIEIDFEEYKVKKFNEEKLLELFNKLEFFSLIDNIKKESSIEIVDNHKVEKWSKVDIKELVTLLQDNRNIAFYPLIYEGEIKKIAFSFGKDTVYIDVFQTEDLKEIFEKEDFEFTTHEIKDFLVRLSYKGIECKSKYIDTAVMAYLLNPSESNYDLDRVLKKYLKVDVPSYEGIFGKGRDKKKIEEIDENILADYICSRCVYLFDLKEKLMNFIEEMDMKKLLLEIEMPLVEVLKSMEVSGFTLDKEVLKELSQKIDDRIGEILDKIYKEAGYQFNVNSPKQLSEFLFEKLNLPVIKKTKTGYSTDSEVLEQLVPYNDIVSDIIEYRQLTKLKSTYIDGFLPLMDENNRVHSNFKQMVTATGRISSTEPNLQNIPIREEFGRQIRRAFIPRSRDGYIVSADYSQIELRVLAHVSGDEKLIESFMNNEDIHLRTASEVFKVPMEKVTPEMRRAAKAVNYGIIYGISDYGLSRDLKISRKEAKEYINNYFERYKGVKDYIEKIVRFAKENGYVTTIMNRRRYIPEINSRNFTQRSQAERLAMNAPIQGSAADIIKMAMVKVYNDLKKLKLKSKLILQVHDELVVDTYKDEVDIIKKILKENMENVVQLKVPLVVEIGVGPNWFLAK | decreased incorporation | excellent sequence information
